Biological target: T1, GAL4-DB (amino acids 1-147) expressed alone (yeast, UniProt P04386 1-147)
T1 construct: range 1-147; Negative control, not fused to another polypeptide; also called pPC97
Test: yeast reporter SPAL5:URA3, growth on Sc-ura and 5-FOA
Description: In this example, we employed the SPAL5:URA3 allele, which carries 5 GBSs.

T1 sequence (P04386 1-147 limits assumed): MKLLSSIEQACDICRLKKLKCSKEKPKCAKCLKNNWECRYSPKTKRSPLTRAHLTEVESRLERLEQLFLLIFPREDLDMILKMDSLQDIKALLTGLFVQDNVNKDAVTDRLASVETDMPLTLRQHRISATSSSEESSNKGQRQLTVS

B1: GAL4-AD (amino acids 768-881) expressed alone (other, yeast, UniProt P04386 768-881, looked up)
chain: ANFNQSGNIADSSLSFTFTNSSNGPNLITTQTNSQALSQPIASSNVHDNFMNNEITASKIDDGNNSKPLSPGWTDQTAYNAFGITTGMFNTTTMDDVYNYLFDDEDTPPNPKKE
notes: range 768-881; Negative control, not fused to another polypeptide; also called AD empty (pPC86); pPC86
  binding result: no binding

Reference: US20050053913A1 (Johns Hopkins, published 2005)
